System: Saccharomyces cerevisiae
Assay: transcriptional activation domain activity (GFP:mCherry ratio, weighted mean of sorted bins, harmonized to initial dataset scale) (arbitrary fluorescence ratio units); higher = stronger transcriptional activation
Conditions: beta-estradiol 1 µM; induction time 4 h
Outline: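 For this assay, yeast diploids with a GFP reporter carried barcoded protein tiles at URA3, each fused to an estradiol-inducible synthetic transcription factor. Induction was a 1:5 dilution into SC with 1 uM beta-estradiol for 4 hours at 30 °C, followed by sorting into 8 bins by GFP:mCherry ratio and barcode sequencing. Tiles under 50 reads were dropped, and activation activity was calculated as the read-weighted mean of bin median fluorescence, averaged across barcodes and linearly mapped onto the initial dataset scale.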

Sequence	transcriptional activation domain activity
QHMAQSAQSVMGLEDHNAYGDPDSASRKRSKVSRACDECRRKKVRPRRPANGV	25800
QHNASQPGDLHSVLHRNQREGQHSVNQLVDRHSESQRGGQHNVNQQRDLQHGN	33400
QIDQNGDPLAKYVRNKVRTTKYTIISILPKDLFEQFRNVIFFLVLVIFQNFPF	56900
QILGCLYCVRWVHMCVYNVSGVQSLIPWLAMLPALARLKFSIWSHRGPPPDGD	52100
QILICVIYVLVAYSRDDTSWSRVCYFMPCAPQSIKERDQAFSLFAGIFSFVVV	39200
QITNRILPSPAAVRYSGLIPLLVLVLVLPLFFLFFLFFFFFLFLFLFFLVLLY	58800
QKKKEAAARNKAKAAPAKEEAAVTPAKVVEKPAAAAAATPAKGGKKMTAALRL	37600
QKKLLILCGFGWLADNVSIYHLLSISCWFYYKGTQLYSLFLIRCGYRLWLLFF	70700
QKLSWIDNSGFRWLIMPFIWSSFFIQWLAVFFEICIVILQLRVIAWWLGWLVC	60700
QKMQKSGGFVNINVFGFVFIIAVSCVVVTLDITLLKFLIFISEFQRLTHLSAR	45400
QKPEAAANATAVGEKKEVEEELKKVVEAKPEGKTEAGPAKEEGKAAEAAPAKA	52800
QKRGLETHHRRSGFWAALRRAEKGKSWVFLFFFFLFFPFFSFFYFFLLFLFLF	21800
QKVGSDKTPGGGSSQYIWLIVYLSISLLSSVLVATTMLLIYTGSLRASVILHE	53500
QLAIELSAFADDSFIFPDEDKPSNNNNNSNNGNDDHSNHDVLHEDPSTNNRQR	16300
QLALFRWCAKMCGDVLSARDLVILGCRILLRCLRSYAWDFLFGHLLFALRLVR	72000
QLECFGSTSLGWKSLKLVLRAHALCLLAAAVKEGLFEYSYVRLLADLCLSLEC	56200
QLEGDADLFLVPNFYVLRRISHLATTTLLRQLEAFSIRTPVFGVLLWKSLVAI	49100

Sequence	transcriptional activation domain activity
QLFTFLLQTYRMKYLVQRVSPRTIRQINDVRLRHLSYKLRQRLIWFADIMRSY	58900
QLKVVRITFSGLGAVALTICPCTPVVEQLLQAVHLKVLYLVKELFVCIPPNTS	48500
QLLLSRLVTWLIRLVCQDEGPLVLKKMCSTLATYFLRPTASWPQCIRHLICSF	38800
QLLLVHEGCVMDRLAIAGFEGAALARALWFASFLKGVVRQDRIMEGMYYLLAP	26300
QLMESVSELDLPPLTLDEPPQAIKFNLNLFNNDPSGQQQQQQQQQQNSTSSTI	29000
QLMTGPVLLDREVQTGHSGSLLVLVMSCWSLECFERRQALRKTVLALLGPLRE	70700
QLNLVNHFYQFSLHFFLDIFDYILHHNPNLKGVTDYPTRRAILLNDLFLVVYR	58200
QLNLVNHFYQFSLRFFLDIFDYILHHNPNLKGVTDYSRRRAILLNDLFLVVYQ	55500
QLQCIPIFGNFVVLILCLKYIYSCNHFGSVTSHHTFHMLAVVLSTFFISLIPV	43100
QLQPFSESQSQNKFDYDMFFRDSSKEGNNLFGEFLEDDDDDKKAANMSDDESS	43800
QLRLFQFDRLVEELLPLVHTHFIRKGIKSSMFASQWFMTLFSYRFPLSLVYRV	66200
QLTAQQLIENAIESGVVDLETLDLPPFLSLDGLPPASSSAAVAASEQIDICPS	133000
QLTRGNWSDLFFLFIFLWIVLFFFLLHWSWAWLLVFVLSICSSGLLGAILFFF	27200
QLVIAVLLLHASAMFTKRVEIPQLKLETAGKLFPCVFVNIVGLVFNTLCLRDV	43300
QLYCILNPPHLFVFPPKEISSVLFLVGVVHYVLYGLYYMLLLYNLFRFGLLTY	45700
QLYSNNFQQSYPNGMVPGYYPKMPYNPMGGDPLLDQAFYGADDFFFPPEGCDN	77800
QMLNPLEKILLSLASIVLSSRVSRNLFVLYALGLHFIVLFTLYSVVYVFIFCS	37500

From the supplement of paper PMC12636428
